Assay results published in patent publication US20240400715A1 (VIBRANT PHARMA, published 2024).
Substitutions are numbered along the chain they refer to. Several values for one entry are separate records, joined by “and”; a condition that tells them apart may be missing. Identical values can stand only once.

B1: HER2-CD3 bispecific antibody 501 (bispecific antibody, human IgG4 S228P, kappa, F234A L235A)
heavy: EVKLLESGGGLVQPKGSLKLSCAASGFTFNTYAMNWVRQAPGKGLEWVARIRSKYNNYATYYADSVKDRFTISRDDSQSILYLQMNNLKTEDTAMYYCVRHGNFGNSYVSWFAYWGQGTLVTVSSASTKGPSVFPLAPCSRSTSESTAALGCLVKDYFPEPVTVSWNSGALTSGVHTFPAVLQSSGLYSLSSVVTVPSSSLGTKTYTCNVDHKPSNTKVDKRVESKYGPPCPPCPAPEAAGGPSVFLFPPKPKDTLMISRTPEVTCVVVDVSQEDPEVQFNWYVDGVEVHNAKTKPREEQFNSTYRVVSVLTVLHQDWLNGKEYKCKVSNKGLPSSIEKTISKAKGQPREPQVYTLPPCQEEMTKNQVSLWCLVKGFYPSDIAVEWESNGQPENNYKTTPPVLDSDGSFFLYSRLTVDKSRWQEGNVFSCSVMHEALHNHYTQKSLSLSL
chain: QVQLVQSGGGLVQAGGSLRLSCAASGRTFSSYAMAWFRQAPGKEREFVAAISWSGANIYVADSVKGRFTISRDNAKDTVYLQMNSLKPEDTAVYYCAVKLGFAPVEERQYDYWGQGTQVTVSSESKYGPPCPPCPAPEAAGGPSVFLFPPKPKDTLMISRTPEVTCVVVDVSQEDPEVQFNWYVDGVEVHNAKTKPREEQFNSTYRVVSVLTVLHQDWLNGKEYKCKVSNKGLPSSIEKTISKAKGQPREPQVCTLPPSQEEMTKNQVSLSCAVKGFYPSDIAVEWESNGQPENNYKTTPPVLDSDGSFFLVSRLTVDKSRWQEGNVFSCSVMHEALHNRFTQKSLSLSL
light: QAVVTQESALTTSPGETVTLTCRSSTGAVTTSNYANWVQEKPDHLFTGLIGGTNKRAPGVPARFSGSLIGDKAALTITGAQTEDEAIYFCALWYSNLWVFGGGTKVEIKRTVAAPSVFIFPPSDEQLKSGTASVVCLLNNFYPREAKVQWKVDNALQSGNSQESVTEQDSKDSTYSLSSTLTLSKADYEKHKVYACEVTHQGLSSPVTKSFNRGEC
notes: VHH-hole chain assembled from VHH and hole-Fc with hinge
B2: HER2-CD3 bispecific antibody 504 (bispecific antibody, human IgG4 S228P, kappa, F234A L235A)
chain: B1 chain with C254Y, S259C, S271W, A273L, V312Y, R340H, F341Y
heavy: B1 heavy with Y354C, C359S, W371S, L373A, Y412V, H440R, Y441F
light: B1 light
notes: VHH-knob chain assembled from VHH and knob-Fc with hinge
B3: 305 (TA6), configuration of FIG. 1W (bispecific antibody, IgG4)
heavy: EVQLVQSGAEVKKPGASVKVSCKASGYTFTNYYIHWVRQAPGQGLEWIGWIYPGDGNTKYNEKFKGRATLTADTSTSTAYLELSSLRSEDTAVYYCARDSYSNYYFDYWGQGTLVTVSSASTKGPSVFPLAPCSRSTSESTAALGCLVKDYFPEPVTVSWNSGALTSGVHTFPAVLQSSGLYSLSSVVTVPSSSLGTKTYTCNVDHKPSNTKVDKRVESKYGPPCPPCPAPEAAGGPSVFLFPPKPKDTLMISRTPEVTCVVVDVSQEDPEVQFNWYVDGVEVHNAKTKPREEQFNSTYRVVSVLTVLHQDWLNGKEYKCKVSNKGLPSSIEKTISKAKGQPREPQVYTLPPCQEEMTKNQVSLWCLVKGFYPSDIAVEWESNGQPENNYKTTPPVLDSDGSFFLYSRLTVDKSRWQEGNVFSCSVMHEALHNHYTQKSLSLSL
chain: EVQLVESGGGFVQAGESLTLSCTSSTLTFTPYRMAWYRQAPGKQRDLVADISSGDGRTTNYADFAKGRFTISRDNIKNTVFLRMTNLKPEDTAVYYCNTFVSFVGIARSWGQGTQVTVSSESKYGPPCPPCPAPEAAGGPSVFLFPPKPKDTLMISRTPEVTCVVVDVSQEDPEVQFNWYVDGVEVHNAKTKPREEQFNSTYRVVSVLTVLHQDWLNGKEYKCKVSNKGLPSSIEKTISKAKGQPREPQVCTLPPSQEEMTKNQVSLSCAVKGFYPSDIAVEWESNGQPENNYKTTPPVLDSDGSFFLVSRLTVDKSRWQEGNVFSCSVMHEALHNRFTQKSLSLSL
light: DIVMTQSPDSLAVSLGERATINCKSSQSLLNSRTRKNYLAWYQQKPGQPPKLLIYWASTRESGVPDRFSGSGSGTDFTLTISSLQAEDVAVYYCTQSFILRTFGQGTKVEIK
notes: chains put together from VH/VL, CH1, knob-Fc; IgG4, kappa; also called CEA-CD3 bispecific antibody 305; not shown: kappa light chain constant domain (CL)
B4: Knob-CEA+Fab-Hole (105) (bispecific antibody, human IgG4 S228P, kappa, F234A L235A)
chain: ESKYGPPCPPCPAPEAAGGPSVFLFPPKPKDTLMISRTPEVTCVVVDVSQEDPEVQFNWYVDGVEVHNAKTKPREEQFNSTYRVVSVLTVLHQDWLNGKEYKCKVSNKGLPSSIEKTISKAKGQPREPQVYTLPPCQEEMTKNQVSLWCLVKGFYPSDIAVEWESNGQPENNYKTTPPVLDSDGSFFLYSRLTVDKSRWQEGNVFSCSVMHEALHNHYTQKSLSLSLGGGGSGGGGSEVQLVESGGGFVQAGESLTLSCTSSTLTFTPYRMAWYRQAPGKQRDLVADISSGDGRTTNYADFAKGRFTISRDNIKNTVFLRMTNLKPEDTAVYYCNTFVSFVGIARSWGQGTQVTVSS
heavy: B1 heavy with Y354C, C359S, W371S, L373A, Y412V, H440R, Y441F
light: B1 light
notes: Anti-CD3 TA1 Fab + anti-CEA VHH C17 on human IgG4 knob-into-hole Fc
B5: Knob+CEA-Fab-Hole (204) (bispecific antibody, human IgG4 S228P, kappa, F234A L235A)
chain: ESKYGPPCPPCPAPEAAGGPSVFLFPPKPKDTLMISRTPEVTCVVVDVSQEDPEVQFNWYVDGVEVHNAKTKPREEQFNSTYRVVSVLTVLHQDWLNGKEYKCKVSNKGLPSSIEKTISKAKGQPREPQVYTLPPCQEEMTKNQVSLWCLVKGFYPSDIAVEWESNGQPENNYKTTPPVLDSDGSFFLYSRLTVDKSRWQEGNVFSCSVMHEALHNHYTQKSLSLSL
heavy: B1 heavy with Y354C, C359S, W371S, L373A, Y412V, H440R, Y441F
light: EVQLVESGGGFVQAGESLTLSCTSSTLTFTPYRMAWYRQAPGKQRDLVADISSGDGRTTNYADFAKGRFTISRDNIKNTVFLRMTNLKPEDTAVYYCNTFVSFVGIARSWGQGTQVTVSSGGGGSGGGGSQAVVTQESALTTSPGETVTLTCRSSTGAVTTSNYANWVQEKPDHLFTGLIGGTNKRAPGVPARFSGSLIGDKAALTITGAQTEDEAIYFCALWYSNLWVFGGGTKVEIKRTVAAPSVFIFPPSDEQLKSGTASVVCLLNNFYPREAKVQWKVDNALQSGNSQESVTEQDSKDSTYSLSSTLTLSKADYEKHKVYACEVTHQGLSSPVTKSFNRGEC
notes: VHH linked to the VL of the Fab; human IgG4 knob-into-hole Fc
B6: Knob+Fab-Hole-CEA (106) (bispecific antibody, human IgG4 S228P, kappa, F234A L235A)
chain: B5 chain
heavy: EVKLLESGGGLVQPKGSLKLSCAASGFTFNTYAMNWVRQAPGKGLEWVARIRSKYNNYATYYADSVKDRFTISRDDSQSILYLQMNNLKTEDTAMYYCVRHGNFGNSYVSWFAYWGQGTLVTVSSASTKGPSVFPLAPCSRSTSESTAALGCLVKDYFPEPVTVSWNSGALTSGVHTFPAVLQSSGLYSLSSVVTVPSSSLGTKTYTCNVDHKPSNTKVDKRVESKYGPPCPPCPAPEAAGGPSVFLFPPKPKDTLMISRTPEVTCVVVDVSQEDPEVQFNWYVDGVEVHNAKTKPREEQFNSTYRVVSVLTVLHQDWLNGKEYKCKVSNKGLPSSIEKTISKAKGQPREPQVCTLPPSQEEMTKNQVSLSCAVKGFYPSDIAVEWESNGQPENNYKTTPPVLDSDGSFFLVSRLTVDKSRWQEGNVFSCSVMHEALHNRFTQKSLSLSLGGGGSGGGGSEVQLVESGGGFVQAGESLTLSCTSSTLTFTPYRMAWYRQAPGKQRDLVADISSGDGRTTNYADFAKGRFTISRDNIKNTVFLRMTNLKPEDTAVYYCNTFVSFVGIARSWGQGTQVTVSS
light: B1 light
notes: as for B4
B7: CEA-Fab-Knob-+Hole (205) (bispecific antibody, human IgG4 S228P, kappa, F234A L235A)
heavy: EVQLVESGGGFVQAGESLTLSCTSSTLTFTPYRMAWYRQAPGKQRDLVADISSGDGRTTNYADFAKGRFTISRDNIKNTVFLRMTNLKPEDTAVYYCNTFVSFVGIARSWGQGTQVTVSSGGGGSGGGGSEVKLLESGGGLVQPKGSLKLSCAASGFTFNTYAMNWVRQAPGKGLEWVARIRSKYNNYATYYADSVKDRFTISRDDSQSILYLQMNNLKTEDTAMYYCVRHGNFGNSYVSWFAYWGQGTLVTVSSASTKGPSVFPLAPCSRSTSESTAALGCLVKDYFPEPVTVSWNSGALTSGVHTFPAVLQSSGLYSLSSVVTVPSSSLGTKTYTCNVDHKPSNTKVDKRVESKYGPPCPPCPAPEAAGGPSVFLFPPKPKDTLMISRTPEVTCVVVDVSQEDPEVQFNWYVDGVEVHNAKTKPREEQFNSTYRVVSVLTVLHQDWLNGKEYKCKVSNKGLPSSIEKTISKAKGQPREPQVYTLPPCQEEMTKNQVSLWCLVKGFYPSDIAVEWESNGQPENNYKTTPPVLDSDGSFFLYSRLTVDKSRWQEGNVFSCSVMHEALHNHYTQKSLSLSL
chain: B5 chain with Y131C, C136S, W148S, L150A, Y189V, H217R, Y218F
light: B1 light
notes: VHH linked to the VH of the Fab; human IgG4 knob-into-hole Fc

target: T1, human CD3ε/δ (ACRO systems, CDD-H52W1) (human, UniProt P07766 23-126; P04234 22-105); experiment: BLI, antibody captured on AHC sensor, 30 C
T1 construct: bought recombinant heterodimer; also called human CD3 epsilon/delta; Human CD3ε/CD3δ

| Kd [nM] | koff [s⁻¹] | kon [M⁻¹ s⁻¹] | Binder |
| --- | --- | --- | --- |
| 3.14 | 0.000508 | 162000 | B1 |
| 2.79 | 0.0005 | 179000 | B2 |

target: T2, human CD3 on Jurkat cells (human, UniProt P07766 23-207; P04234 22-171; P09693 23-182); experiment: FACS, Jurkat cells;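 also: flow cytometric binding of bispecific antibodies to Jurkat T cells, threefold serial dilutions incubated half an hour in the cold, EC50 taken from the fitted binding curve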
T2 construct: whole, on cells; CD3 complex as on Jurkat (Clone E6-1) cells; also called CD3 expressing cells (Jurkat)
Experimental: The binding of the bispecific antibodies was tested on the CA expressing human lung adenocarcinoma cell line (H1573) and the CD3 expressing immortalized T lymphocyte line (Jurkat). The steps are as follows: the cells were harvested, counted, and resuspended in FACS buffer (PBS containing 0.1% BSA) at 2×10⁶ cells/ml. 100 μl of cell suspension was incubated in a V-bottom 96-well plate at 4° C. with 3-fold serial dilutions of bispecific antibodies (20 μg/ml-0.009 μg/ml) for 30 minutes; washed twice with pre-cooled FACS buffer. […] GraphPadPrism was used to obtain the binding curve.

| EC50 | Binder |
| --- | --- |
| 0.267 µg/mL and 2.05 nM | B3 |
| 0.85 µg/mL and 6.54 nM | B4 |
| 1.36 µg/mL and 10.4 nM | B5 |
| 0.69 µg/mL and 5.31 nM | B6 |
| 0.195 µg/mL and 1.5 nM | B7 |

target: T3, human CD3ε/δ (ACRO systems, CDD-H52W1) (human, UniProt P07766 23-126; P04234 22-105); experiment: BLI, antibody captured, antigen in solution;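 also: bispecific antibodies captured on AHIC biosensors to a 1.5 nm loading signal, in PBST with 0.02% detergent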
T3 construct: Bought protein; also called human CD3ϵ/CD3δ; human CD3 epsilon/delta antigen
Experimental: The bispecific antibodies were diluted to 5 ag/ml, and 1.5 nm protein was coupled to the surface of the AHIC sensor chip through 0.02% PBST.

| Kd [nM] | koff [s⁻¹] | kon [M⁻¹ s⁻¹] | Binder |
| --- | --- | --- | --- |
| 2.85 | 0.00087 | 324000 | B3 |
| 0.696 | 0.000256 | 367000 | B4 |
| 2.91 | 0.000571 | 197000 | B5 |
| 0.589 | 0.000215 | 366000 | B6 |
| 2.38 | 0.000666 | 279000 | B7 |
